In the supplement of paper PMC9876800:

Test system: peptide library, one residue held at a place counted from the S/T acceptor
Assay: relative phosphorylation of the sub-library (ratio to the mean residue at this position); higher = residue favoured
Conditions: human
Method in brief: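 Relative sub-library phosphorylation, a ratio to the mean residue at that position, was obtained by phosphorimaging and densitometry of spots on streptavidin membranes. Before capture, purified recombinant kinases were incubated for 90 min under kinase-specific conditions with 50 μM biotinylated degenerate peptide sub-libraries and 50 μM ATP spiked with γ-32P-ATP. Each sub-library fixed one residue at one position around a central Ser/Thr.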

Chain of MAPK3, construct: Full length (P27361 whole entry, looked up): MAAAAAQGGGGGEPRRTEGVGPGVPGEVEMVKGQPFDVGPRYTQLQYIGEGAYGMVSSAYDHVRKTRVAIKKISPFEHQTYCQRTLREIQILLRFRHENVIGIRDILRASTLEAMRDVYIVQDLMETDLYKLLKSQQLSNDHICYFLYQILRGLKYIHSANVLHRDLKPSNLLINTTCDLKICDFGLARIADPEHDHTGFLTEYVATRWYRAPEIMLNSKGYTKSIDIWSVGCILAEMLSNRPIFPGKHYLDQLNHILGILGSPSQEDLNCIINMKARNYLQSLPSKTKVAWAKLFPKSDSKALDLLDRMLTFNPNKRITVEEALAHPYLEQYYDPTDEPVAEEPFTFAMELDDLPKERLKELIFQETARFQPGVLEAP
Chain of MAP3K19, construct: aa941-end (Q56UN5 941-1328, looked up): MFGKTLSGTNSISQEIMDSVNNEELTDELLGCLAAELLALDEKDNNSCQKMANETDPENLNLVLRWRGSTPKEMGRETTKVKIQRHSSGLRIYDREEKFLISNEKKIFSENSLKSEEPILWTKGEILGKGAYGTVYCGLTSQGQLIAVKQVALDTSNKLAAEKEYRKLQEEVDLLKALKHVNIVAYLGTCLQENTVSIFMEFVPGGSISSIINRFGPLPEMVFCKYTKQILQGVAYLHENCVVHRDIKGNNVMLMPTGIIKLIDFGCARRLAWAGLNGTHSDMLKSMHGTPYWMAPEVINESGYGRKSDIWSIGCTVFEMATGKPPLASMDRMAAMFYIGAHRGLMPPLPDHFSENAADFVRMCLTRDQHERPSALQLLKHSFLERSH

MAP3K19, construct: aa941-end (from UniProt Q56UN5)
relative phosphorylation
Conditions	at +1	at +2	at +3	at +4	at -1	at -2	at -3	at -4	at -5
A fixed	0.458	0.666	0.903	0.975	0.853	1.02	0.971	1.05	1.27
D fixed	0.354	0.662	0.8	0.995	1.51	1.22	1.46	1.14	1.18
E fixed	0.386	0.508	0.765	0.822	0.913	0.851	1.03	1.1	0.864
F fixed	1.33	0.605	0.974	0.784	0.832	1.67	0.921	1.04	1.08
G fixed	0.531	0.809	1.15	1.23	0.867	0.977	1.16	1.16	1.24
H fixed	0.999	1.35	1.1	1.12	1.25	1.34	1.08	1.06	1.13
I fixed	1.7	0.677	0.741	0.801	0.586	0.558	0.65	0.701	0.679
K fixed	0.396	2.23	1.32	1.38	1	0.363	0.877	0.834	0.892
L fixed	2.2	0.55	0.818	0.817	1.13	0.506	0.725	0.883	0.736
M fixed	1.56	0.625	0.803	0.863	1.03	0.821	0.95	0.969	0.87
N fixed	0.52	1.43	1.22	1.05	1.25	1.08	1.39	1.1	1.05
P fixed	0.202	0.646	1.27	1.34	1.08	0.687	0.953	1.06	1.01
Q fixed	0.485	0.932	0.986	1.26	0.941	0.856	1.04	0.936	0.818
R fixed	0.433	3	1.18	1.05	0.914	0.484	0.923	0.888	1.02
V fixed	1.17	0.883	0.919	0.756	0.615	0.599	0.606	0.81	0.879
W fixed	2.7	0.673	1.06	0.916	0.841	1.79	1.21	1.21	1.28
Y fixed	1.57	0.755	0.982	0.838	1.38	2.18	1.05	1.05	1.02
pThr fixed	0.786	1.14	1.09	1.08	0.755	0.741	1.09	1.13	1.19
pTyr fixed	0.541	0.47	0.675	0.662	1.35	0.832	1.09	0.908	0.807

MAPK3, construct: Full length (from UniProt P27361)
relative phosphorylation
Conditions	at +1	at +2	at +3	at +4	at -1	at -2	at -3	at -4	at -5
A fixed	1.21	1.07	1.04	0.886	0.999	1.2	1.23	1.09	1.06
D fixed	0.0833	0.582	0.614	0.81	0.5	0.407	0.989	1.19	1.31
E fixed	0.0773	0.244	0.706	0.732	0.509	0.454	1.27	1.35	1.2
F fixed	0.372	1.1	1.15	1.22	0.802	0.577	0.808	0.946	1.09
G fixed	0.947	1.34	1.13	1.02	1	0.724	1.32	1.25	1.25
H fixed	0.217	1.26	1.11	1.07	0.975	0.461	0.949	0.914	1.11
I fixed	0.292	0.775	0.878	0.943	0.67	1.18	0.792	0.82	0.724
K fixed	0.179	1.58	0.699	1.31	1.35	0.345	0.663	0.874	0.904
L fixed	0.398	1.11	1.08	1.02	1.31	1.42	0.917	0.958	0.903
M fixed	0.276	0.987	0.971	1.09	1.39	1.29	1.08	1.09	0.907
N fixed	0.155	1.26	0.786	0.931	0.785	0.613	0.989	0.855	0.93
P fixed	11.6	0.628	1.56	0.896	1.26	4.97	1.74	1.18	1.11
Q fixed	0.159	0.788	0.736	1.01	1.1	0.82	1.05	0.942	0.975
R fixed	0.223	2.13	0.979	1.1	1.85	0.566	0.907	0.905	0.841
V fixed	0.291	0.711	0.879	0.903	0.746	1.22	0.837	0.777	0.783
W fixed	0.261	0.681	1.55	1.12	0.654	0.386	0.659	0.913	0.781
Y fixed	0.211	0.744	1.13	0.931	1.08	0.373	0.798	0.948	1.13
pThr fixed	0.338	0.662	0.663	0.75	0.373	0.941	1.23	1.23	1.41
pTyr fixed	0.323	0.38	1.01	1.08	0.444	0.686	1.29	1.37	1.25
